Results on one substance are retold here after US20210386875.

The test system of the data set is ^111In-labeled DTPA-pMMP9 peptide on non-radioactive 10 nm gold nanoparticles.

Chain of MMP9 (chain, as listed by the source): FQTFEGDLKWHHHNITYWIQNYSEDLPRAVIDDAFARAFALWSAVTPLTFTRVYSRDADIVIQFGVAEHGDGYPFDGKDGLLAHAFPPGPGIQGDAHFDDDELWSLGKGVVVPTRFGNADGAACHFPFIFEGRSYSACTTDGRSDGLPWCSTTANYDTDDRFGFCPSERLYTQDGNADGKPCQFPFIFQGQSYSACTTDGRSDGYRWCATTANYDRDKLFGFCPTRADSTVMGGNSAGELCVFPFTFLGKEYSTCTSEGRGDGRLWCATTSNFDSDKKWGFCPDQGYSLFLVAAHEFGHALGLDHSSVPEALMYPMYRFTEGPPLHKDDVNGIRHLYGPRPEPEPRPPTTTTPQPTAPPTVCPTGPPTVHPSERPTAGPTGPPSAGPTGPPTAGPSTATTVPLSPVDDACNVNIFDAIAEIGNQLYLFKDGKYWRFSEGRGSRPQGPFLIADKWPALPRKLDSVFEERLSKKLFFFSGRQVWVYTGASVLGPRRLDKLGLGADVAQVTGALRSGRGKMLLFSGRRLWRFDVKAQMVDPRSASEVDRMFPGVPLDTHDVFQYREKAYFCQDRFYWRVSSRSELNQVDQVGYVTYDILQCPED

For the substance MMP9, the “percent of ^111In cleaved from the nanoparticle after 48 hours incubation with MMP9 (16% without MMP9)” value is reported as 48% ^111In was cleaved from the nanoparticle compared to only 16% without MMP9.
